Measured values: paper PMC13083859

Target: human muscarinic M3 receptor with C-terminal mCitrine (M3-mCit), wild type (human) (UniProt P20309)
Test: FRET or BRET; single-cell FRET between receptor-mCitrine and mTurq-Gγ2 of the co-expressed heterotrimer (Gαo or Gαq, Gβ1, Gγ2) in HEK293T cells permeabilized with 0.05% saponin for 2 min (GTP depletion), PTX-A co-expressed; room temperature; internal buffer pH 7.35; complex induced by 10 µM acetylcholine, its stability after wash-out quantified as area under the curve (AUC); complete dissociation by 1 µM GTPγS

UniProt P20309, sequence (P20309 whole entry): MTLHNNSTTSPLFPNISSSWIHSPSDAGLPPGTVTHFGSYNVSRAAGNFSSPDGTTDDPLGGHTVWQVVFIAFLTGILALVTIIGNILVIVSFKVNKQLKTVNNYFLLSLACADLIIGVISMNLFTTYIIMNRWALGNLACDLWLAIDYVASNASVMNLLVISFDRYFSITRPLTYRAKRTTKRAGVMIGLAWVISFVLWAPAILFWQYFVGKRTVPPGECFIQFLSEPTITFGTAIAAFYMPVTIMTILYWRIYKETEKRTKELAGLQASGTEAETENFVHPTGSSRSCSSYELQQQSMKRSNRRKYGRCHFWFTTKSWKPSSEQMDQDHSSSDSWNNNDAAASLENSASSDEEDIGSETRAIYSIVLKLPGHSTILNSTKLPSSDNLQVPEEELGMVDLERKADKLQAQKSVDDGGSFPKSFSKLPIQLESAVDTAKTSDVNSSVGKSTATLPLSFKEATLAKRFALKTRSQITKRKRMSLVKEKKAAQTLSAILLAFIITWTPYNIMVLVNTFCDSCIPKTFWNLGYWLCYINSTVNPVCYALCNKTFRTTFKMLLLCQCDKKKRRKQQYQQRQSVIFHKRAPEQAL

AUC (area under the FRET curve after agonist wash-out) | Substance
30 a.u. | Go heterotrimer: PTX-insensitive Gαo, Gβ1-wt and mTurq-Gγ2 (from UniProt P09471 1-354; P62873 1-340; P59768 1-71) (complex)
106 a.u. | Gq heterotrimer: Gαq, Gβ1-wt and mTurq-Gγ2 (from UniProt P50148 1-359; P62873 1-340; P59768 1-71) (complex; other documents disagree on this pair)
